The values that follow are results of earlier work, collected in patent publication US20060234299A1, “Protein scaffolds and uses thereof” (Avidia Research Institute, priority 2004, published 2006).

The conditions of the series: commercial drugs.
As for Remicade: TNFa Antibody, the “Human T½” value was 216 h.

For the substance Rituxan: CD20 Antibody, the “Human T½” value was 78 h.

Turning to Enbrel, the “Human T½” value is 103 h.
